{
  "source": "patent US12383631B2",
  "about": "“Immune antigen specific IL-18 immunocytokines and uses thereof” (Bright Peak Therapeutics AG, priority 2022, dated 2025)",
  "data": [
    {"target": "T1, human IL-18 binding protein isoform a (IL-18BPa) (Homo sapiens, UniProt O95998)", "T1 sequence (O95998 31-194)": "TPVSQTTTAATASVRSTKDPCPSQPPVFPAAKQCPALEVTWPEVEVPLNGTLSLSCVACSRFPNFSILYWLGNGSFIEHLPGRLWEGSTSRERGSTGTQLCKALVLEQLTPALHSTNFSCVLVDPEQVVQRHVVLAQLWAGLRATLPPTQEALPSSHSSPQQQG", "experiment": "Cellular IL-18 Binding protein resistance assay in NK-92 cells (Example 13)", "format": "cell-based", "settings": "NK92 cells, IL-18 analyte 1 nM final, IL-18BPa titrated, 1 ng/ml IL-12; read-out: IC50 IL-18BP-mediated inhibition of IFNγ secretion", "procedure": "The NK cell line NK-92 derived from a patient with lymphoma (ATCC, Cat #CRL-2407) was cultured in aMEM medium supplemented with 20% FCS-Glutamax, 25 μM B-mercaptoEthanol, and 100 IU/ml of recombinant Human Interleukin-2 (TL-2). On the day of experiment, cells were harvested and washed with aMEM medium without IL-2. After counting, cells were seeded at 100 000 cells/well in a 384 well titer plate and incubated at 37° C./5% CO2. Sixteen 2-fold serial dilutions of Fc fused human IL-18 binding protein isoform a (IL-18BPa; R&D systems, Cat #119-BP) were prepared in aMEM medium-1 ng/ml IL-12 containing 2 nM of each IL-18 variants and were added to the NK-92 cells. Final IL-18 analytes concentration was 1 nM and final IL-18BPa concentrations ranged from to 566 nM down to 17 pM.\nAfter 16-20 h incubation at 37° C./5% CO2, 5 μl of supernatant were carefully transferred to a 384 microwells OPTIplate (Perkin Elmer; Cat #6007270) and Interferon-gamma (IFNγ) levels measured using the Human IFNγ AlphaLISA Assay Kit (Perkin Elmer, Cat #AL217C). […] AlphaLisa signal was then measured on an Enspire plate reader (Perkin Elmer) using 680 and 615 nm as excitation and emission wavelengths respectively. Half maximal inhibitory concentration (IC50) was calculated based on a variable slope, four parameter analysis using GraphPad PRISM software.", "units": {"IC50": "µM"}, "values": [
      {"molecule": "SEQ ID NO: 30: IL-18 polypeptide: E6K, V11I, C38A, K53A, T63A, C76A, C127A (protein) YFGKLKSKLSIIRNLNDQVLFIDQGNRPLFEDMTDSDARDNAPRTIFIISMYADSQPRGMAVAISVKCEKISTLSAENKIISFKEMNPPDNIKDTKSDIIFFQRSVPGHDNKMQFESSSYEGYFLAAEKERDLFKLILKKEDELGDRSIMFTVQNED", "IC50": 0.488}
    ]},
    {"target": "T2, human IL-18BP (Homo sapiens, UniProt O95998)", "T2 sequence (O95998 31-194)": "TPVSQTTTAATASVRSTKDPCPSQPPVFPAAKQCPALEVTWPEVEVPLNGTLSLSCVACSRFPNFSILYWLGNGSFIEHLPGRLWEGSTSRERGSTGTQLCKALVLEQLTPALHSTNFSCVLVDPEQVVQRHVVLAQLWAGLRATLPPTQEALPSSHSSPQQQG", "experiment": "IL-18BP binding AlphaLISA assay (Example 4 / 17B)", "settings": "IL-18 binding protein AlphaLISA", "procedure": "A human IL-18BP AlphaLISA Assay Kit is used to determine the binding affinity of each immunocytokine and IL-18 variant for IL-18BP, which detected the presence of free form IL-18BP.\nSixteen three-fold serial dilutions of IL-18 analytes are prepared in aMEM medium supplemented with 20% FCS, Glutamax, and 25 μM β-mercaptoethanol in the presence of 5 ng/mL of His-tagged human IL-18BP. Final IL-18 analytes concentration range from 2778 nM to 0.2 pM.\nAfter 1 hr incubation at room temperature, free IL-18BP levels are measured using a […]. In a 384 well OPTIplate, 5 μL of 5× Anti-IL-18BP acceptor beads are added to 7.5 μL of an IL-18/IL-18BP mix. After 30 min incubation at room temperature with shaking, 5 μL of biotinylated Anti-IL-18BP antibodies are added to each well. The plate is incubated further for 1 hr at room temperature. Under subdued light, 12.5 μL of 2× streptavidin (SA) donor beads are pipetted into each well, and the wells are incubated with shaking for an additional 30 min at room temperature. The AlphaLisa signal is then measured on an Enspire plate reader with 680 and 615 nm as excitation and emission wavelengths, respectively. The dissociation constant (KD) is calculated based on a variable slope, four parameter analysis using GraphPad PRISM software.\n17B—IL-18 BP AlphaLISA assay—An IL-18 binding protein AlphaLISA experiment substantially as described in Example 4 was performed on IL-18 polypeptide which can be incorporated into immunocytokine compositions as provided herein to assess ability to bind to IL-18BP.", "units": {"Kd": "µM"}, "values": [
      {"molecule": "C179: IL-18 polypeptide: E6K, K8E, V11I, C38A, K53A, T63A, C76A, Q103R, C127A (protein) YFGKLKSELSIIRNLNDQVLFIDQGNRPLFEDMTDSDARDNAPRTIFIISMYADSQPRGMAVAISVKCEKISTLSAENKIISFKEMNPPDNIKDTKSDIIFFRRSVPGHDNKMQFESSSYEGYFLAAEKERDLFKLILKKEDELGDRSIMFTVQNED", "Kd": "> 2.8"},
      {"molecule": "C181: IL-18 polypeptide: E6K, V11I, C38A, K53A, T63A, C76A, C127A, V153E (protein) YFGKLKSKLSIIRNLNDQVLFIDQGNRPLFEDMTDSDARDNAPRTIFIISMYADSQPRGMAVAISVKCEKISTLSAENKIISFKEMNPPDNIKDTKSDIIFFQRSVPGHDNKMQFESSSYEGYFLAAEKERDLFKLILKKEDELGDRSIMFTEQNED", "Kd": "> 2.8"},
      {"molecule": "C182: IL-18 polypeptide: E6K, V11I, C38A, K53A, T63A, C76A, C127A, V153Y (protein) YFGKLKSKLSIIRNLNDQVLFIDQGNRPLFEDMTDSDARDNAPRTIFIISMYADSQPRGMAVAISVKCEKISTLSAENKIISFKEMNPPDNIKDTKSDIIFFQRSVPGHDNKMQFESSSYEGYFLAAEKERDLFKLILKKEDELGDRSIMFTYQNED", "Kd": "> 2.8"},
      {"molecule": "SEQ ID NO: 69: IL-18 polypeptide: E6K, V11I, C38A, M51G, K53A, T63A, C76A, C127A (protein) YFGKLKSKLSIIRNLNDQVLFIDQGNRPLFEDMTDSDARDNAPRTIFIISGYADSQPRGMAVAISVKCEKISTLSAENKIISFKEMNPPDNIKDTKSDIIFFQRSVPGHDNKMQFESSSYEGYFLAAEKERDLFKLILKKEDELGDRSIMFTVQNED", "Kd": "> 2.8"},
      {"molecule": "SEQ ID NO: 72: IL-18 polypeptide: N-terminal 4xG, E6K, V11I, C38A, K53A, T63A, C76A, C127A (protein, N-terminal 4xG, IL-18 polypeptide: N-terminal 4xG, E6K, V11I, C38A, K53A, T63A, C76A, C127A) GGGGYFGKLKSKLSIIRNLNDQVLFIDQGNRPLFEDMTDSDARDNAPRTIFIISMYADSQPRGMAVAISVKCEKISTLSAENKIISFKEMNPPDNIKDTKSDIIFFQRSVPGHDNKMQFESSSYEGYFLAAEKERDLFKLILKKEDELGDRSIMFTVQNED", "Kd": "> 2.8"},
      {"molecule": "SEQ ID NO: 71: IL-18 polypeptide: N-terminal G, E6K, V11I, C38A, K53A, T63A, C76A, C127A (protein, N-terminal G, IL-18 polypeptide: N-terminal G, E6K, V11I, C38A, K53A, T63A, C76A, C127A) GYFGKLKSKLSIIRNLNDQVLFIDQGNRPLFEDMTDSDARDNAPRTIFIISMYADSQPRGMAVAISVKCEKISTLSAENKIISFKEMNPPDNIKDTKSDIIFFQRSVPGHDNKMQFESSSYEGYFLAAEKERDLFKLILKKEDELGDRSIMFTVQNED", "Kd": "> 2.8"},
      {"molecule": "SEQ ID NO: 70: IL-18 polypeptide: N-terminal G, E6K, V11I, C38A, M51G, K53A, T63A, C76A, C127A (protein, N-terminal G, IL-18 polypeptide: N-terminal G, E6K, V11I, C38A, M51G, K53A, T63A, C76A, C127A) GYFGKLKSKLSIIRNLNDQVLFIDQGNRPLFEDMTDSDARDNAPRTIFIISGYADSQPRGMAVAISVKCEKISTLSAENKIISFKEMNPPDNIKDTKSDIIFFQRSVPGHDNKMQFESSSYEGYFLAAEKERDLFKLILKKEDELGDRSIMFTVQNED", "Kd": "> 2.8"}
    ]},
    {"tested_on": "PD-1 positive (transduced) KG-1 cells", "experiment": "IFN gamma secretion assay in PD-1 transduced KG-1 cells (Example 11)", "format": "cell-based, human", "settings": "ratio of EC50 in PD-1 positive and parental KG-1 cells", "procedure": "The KG-1 cell line was used to generate a PD-1 expressing cell line and furthermore, to measure IFNγ release upon incubation with TL-18 variants and corresponding TL-18 immunocytokines.\nPD-1 expressing cell line generation: Briefly, KG-1 cells were transduced using lentiviral particles carrying the human PD-1 gene (PDCD1 NM_005018; Origene, CAT #: RC210364L3V) at a MOI (Multiplicity of Infection) of 30. Spinfection was performed at 1260 g during 90 min at 37° C. in the presence of 5 μg/ml of Polybrene and 10 mM of HEPES in complete culture media (RPMI, 10% FBS, 1% L-Glutamine). […]\nIFNγ release was assessed in PD-1 positive (transduced) KG-1 cells, as well as in the parental PD-1 negative cells. […] The lowest concentration assessed was 0.05 fM. After incubation, IFNγ release was measured using the LEGENDplex custom human mix and match KIT (Biolegend LEGENDplex™ Human IFN-γ Capture Bead B5, 13×#740942, LEGENDplex™ P 1 Essential Immune Response Panel Detection Abs, #740931, LEGENDplex™ Buffer Set A #740368). […] Fluorescence measurements were done with a Quanteon Flow Cytometer from Acea Biosciences. For analysis, MFI values (median fluorescence intensity) were exported and plotted against concentrations used. The EC50 values (half maximal effective concentration) were calculated based on a variable slope and four parameter analysis using GraphPad PRISM software version 9.", "values": [
      {"molecule": "SEQ ID NO: 30: IL-18 polypeptide: E6K, V11I, C38A, K53A, T63A, C76A, C127A (protein) YFGKLKSKLSIIRNLNDQVLFIDQGNRPLFEDMTDSDARDNAPRTIFIISMYADSQPRGMAVAISVKCEKISTLSAENKIISFKEMNPPDNIKDTKSDIIFFQRSVPGHDNKMQFESSSYEGYFLAAEKERDLFKLILKKEDELGDRSIMFTVQNED", "PD-1^pos/PD-1^neg EC50 ratio": 1.336}
    ]}
  ]
}
